{"source": "patent US20040077572", "about": "“Transposon system and methods of use” (Regents of the University of Minnesota, published 2004)", "binders": {"B1": {"name": "Lo(S10-12) (dsDNA)", "DNA 1": "TACAGTTGAAGAACGAAGTTTACATACACTTAAG", "DNA 2": "CTTAAGTGTATGTAAACTTCGTTCTTCAACTGTA"}, "B2": {"name": "Lo (dsDNA)", "DNA 1": "B1 DNA 1 with A12T, A13C, C14G", "DNA 2": "B1 DNA 2 with G21C, T22G, T23A"}, "B3": {"name": "Lo(S3) (dsDNA)", "DNA 1": "B1 DNA 1 with G5A, A12T, A13C, C14G", "DNA 2": "B1 DNA 2 with G21C, T22G, T23A, C30T"}, "B4": {"name": "Lo(S7-9) (dsDNA)", "DNA 1": "TACAGTTGCCCTCGGAAGTTTACATACACTTAAG", "DNA 2": "CTTAAGTGTATGTAAACTTCCGAGGGCAACTGTA"}, "B5": {"name": "Li/Lo(H) (dsDNA)", "DNA 1": "TCCAGTGGGTCAGAAGTTTACATACACTTAAG", "DNA 2": "CTTAAGTGTATGTAAACTTCTGACCCACTGGA", "modifications": "[none]"}, "B6": {"name": "Li (dsDNA)", "DNA 1": "B5 DNA 1 with T29A, A31G, G32T", "DNA 2": "B5 DNA 2 with C1A, T2C, A4T"}, "B7": {"name": "Lo(delta8-11) (dsDNA)", "DNA 1": "TACAGTTGAGGAAGTTTACATACACTTAAG", "DNA 2": "CTTAAGTGTATGTAAACTTCCTCAACTGTA"}, "B8": {"name": "Lo(S4-6) (dsDNA)", "DNA 1": "TACAGCCCAAGTCGGAAGTTTACATACACTTAAG", "DNA 2": "CTTAAGTGTATGTAAACTTCCGACTTGGGCTGTA"}, "B9": {"name": "Lo(S1,3) (dsDNA)", "DNA 1": "TAAAATTGAAGTCGGAAGTTTACATACACTTAAG", "DNA 2": "CTTAAGTGTATGTAAACTTCCGACTTCAATTTTA"}, "B10": {"name": "Lo(S27-29) (dsDNA)", "DNA 1": "TACAGTTGAAGTCGGAAGTTTACATACATGGAAG", "DNA 2": "CTTCCATGTATGTAAACTTCCGACTTCAACTGTA"}, "B11": {"name": "Lo(S28-30) (dsDNA)", "DNA 1": "B10 DNA 1 with T29C, A32G", "DNA 2": "B10 DNA 2 with T3C, A6G"}}, "settings_in_all_cases": "tags: C-terminal His6", "key": {"[1]": {"target": "T1, N123 (DNA-binding domain of Sleeping Beauty transposase) (synthetic (reconstructed salmonid))", "T1 chain": "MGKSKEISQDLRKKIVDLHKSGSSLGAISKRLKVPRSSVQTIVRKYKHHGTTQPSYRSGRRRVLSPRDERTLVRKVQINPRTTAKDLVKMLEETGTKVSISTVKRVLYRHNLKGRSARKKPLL", "assay": "EMSA; binding abolished", "from_the_text": "(§1) DNA fragments with one to three DRs were obtained by digestion of the appropriate transposon with HindIII and SacI. To determine the core sequence for SB binding, DNA fragments with mutations in the outer or inner DR were made by PCR followed by enzyme digestion. DNA fragments were end-labeled with [α³²P]-dCTP. Nucleoprotein complexes were formed in a buffer as described by Ivics et al., Cell, 1997;91:501-510. Reactions contained 100 picogram (pg) DNA probes, 1 microgram (μg) poly[dI:dC], and 1 microliter (μl) N123 in a total volume of 20 μl. After a 60 minutes incubation at 30° C., […] of loading dye containing 50% glycerol and bromophenol blue were added and the samples were loaded onto 4%-6% polyacrylamide gels, which were run for 2-3 hours at 120 volts. 4% gels were used for EMSA assays with triple-DR probes while 6% gels were used with double-DR probes. Competitor concentrations were as described in Ivics et al., Cell, 1997;91:501-510. Dried gels were exposed to the phosphor for 6-9 hours and imaged on a Storm 840 Imager (Molecular Dynamics)."}, "[2]": {"target": "T1, N123 (DNA-binding domain of Sleeping …)", "assay": "competition; weaker competitor than Li", "from_the_text": "as §1\n(§2) The initial step of SB transposition involves the specific binding of transposase to both ITRs of SB transposon. Two DRs in each ITR are required because deletion of one or the both severely reduces transposition (Izsvák et al., J. Mol. Biol., 2000;302:93-102). […]"}, "[3]": {"target": "T1, N123 (DNA-binding domain of Sleeping …)", "assay": "EMSA; binding not affected", "from_the_text": "as §1"}, "[4]": {"target": "T1, N123 (DNA-binding domain of Sleeping …)", "assay": "EMSA; still binds", "from_the_text": "as §1"}, "[5]": {"target": "T1, N123 (DNA-binding domain of Sleeping …)", "assay": "competition; binds more tightly than Lo", "from_the_text": "as §1, §2"}}, "note": "Numbering of substitutions follows the chain as printed."}
{"binder": "B1", "values": [{"measurement": "binding result", "setting": "[1]", "value": "no binding"}]}
{"binder": "B2", "values": [{"measurement": "binding result", "setting": "[2]", "value": "binds"}]}
{"binder": "B3", "values": [{"measurement": "binding result", "setting": "[3]", "value": "binds"}]}
{"binder": "B4", "values": [{"measurement": "binding result", "setting": "[3]", "value": "binds"}]}
{"binder": "B5", "values": [{"measurement": "binding result", "setting": "[4]", "value": "binds"}]}
{"binder": "B6", "values": [{"measurement": "binding result", "setting": "[5]", "value": "binds"}]}
{"binder": "B7", "values": [{"measurement": "binding result", "setting": "[1]", "value": "no binding"}]}
{"binder": "B8", "values": [{"measurement": "binding result", "setting": "[3]", "value": "binds"}]}
{"binder": "B9", "values": [{"measurement": "binding result", "setting": "[3]", "value": "binds"}]}
{"binder": "B10", "values": [{"measurement": "binding result", "setting": "[1]", "value": "no binding"}]}
{"binder": "B11", "values": [{"measurement": "binding result", "setting": "[3]", "value": "binds"}]}
